Data taken from patent US20090297524A1 (DOMANTIS, published 2009).

T1: Recombinant human CD40L (human, UniProt P29965 108-261, limits assumed)
T1 construct: also called CD40 ligand
T1 sequence (looked up): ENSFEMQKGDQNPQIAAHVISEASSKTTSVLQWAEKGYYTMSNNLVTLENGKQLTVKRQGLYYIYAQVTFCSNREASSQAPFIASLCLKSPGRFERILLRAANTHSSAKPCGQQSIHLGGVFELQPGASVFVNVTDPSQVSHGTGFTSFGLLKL


Biological target: T1, Recombinant human CD40L
Test: CD40L/CD40-Fc receptor binding assay;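 further: plate assay with coated human CD40-Fc, bound ligand detected via HRP anti-biotin antibody and TMB, OD at 450 nm, lower signal indicates stronger inhibition by dAb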
Protocol: A 96 well Nunc Maxisorp assay plate was coated overnight at 4° C. with 100 μl per well of recombinant human CD40/Fc (R&D Systems) at 0.5 μg/ml in carbonate buffer. The plate was washed 3 times with 300 μl of 0.05% Tween/PBS and 3 times with 300 μl of PBS using a Tecan plate washer. The wells were blocked using 200 μl of PBS containing 2% (w/v) BSA and incubated for a minimum of 1 h at room temperature. The wells were washed as above, then 50 μl of purified dAb protein (or unpurified supernatant containing dAb from a micro-culture expression) was added to each well.
The plate was washed as described above, then 100 μl HRP conjugated anti-biotin antibody (1:5000 dilution in diluent) added to each well and the plate incubated for 1 hr at room temperature. The plate was washed again as described above using a Tecan plate washer and the assay developed using 100 μl of SureBlue 1-Component TMB MicroWell Peroxidase solution (the plate was left at room temperature for up to 20 min). The reaction was stopped by the addition of 100 μl M hydrochloric acid. The OD₄₅₀ₙₘ of the plate was assayed within 30 minutes of acid addition. The OD₄₅₀ₙₘ is proportional to the amount of bound streptavidin-HRP conjugate, therefore the greater the degree of dAb inhibition the lower the OD₄₅₀ₙₘ of the resulting signal.

binding result	Binder
binds	DOM.162 (other, Vk dAb) VL: DIQMTQSPSSLSASVGDRVTITCRASQDISDDLEWYQQKPGKAPKLLIYNSSFLQSGVPSRFSGSGSGADFTLTISSLQPEDFATYYCQQYHSLPVTFGQGTKVEIKR
binds	DOM.164 (other, Vk dAb) VL: DIQMTQSPSSLSASVGDRVTITCRASQSIDTDLEWYQQKPGKAPKLLIYDGSWLQSGVPSRFSGSGSGTDFTLTISSLQPEDFATYYCQQYRWIPVTFGQGTKVEIKR
binds	DOM.163 (other, Vk dAb) VL: DIQMTQSPSSLSASVGDRVTITCRASQDIEGNLEWYQQKPGKAPKLLIYDSSQLQSGVPSRFSGSGSGTDFTLTISSLQPEDFATYYCQQYHHLPTTFGQGTKVEIKR
binds	DOM-66 (other, VH dAb) VH: EVQLLESGGGLVQPGGSLRLSCAASGFTFSDYEMLWVRQAPGKGLEWVSTITSEGHSTYYADSVKGRFTISRDNSKNTLYLQMNSLRAEDTAVYYCAKPGTSFDYWGQGTLVTVSS
binds	DOM-19 (other, VH dAb) VH: EVQLLESGGGLVQPGGSLRLSCAASGFPFPQYQMAWVRQAPGKGLEWVSMITSDGLDTYYADSVKGRFTISRDNSKNTLYLQMNSLRAEDTAVYYCAKPEPLFDYWGQGTLVTVSS
binds	DOM-74 (other, VH dAb) VH: EVQLLESGGGLVQPGGSLRLSCAASGFTFSDYPMTWVRQAPGKGLEWVSTILSPGTETYYADSVKGRFTISRDNSKNTLYLQMNSLRAEDTAVYYCAKAEKDFDYWGQGTLVTVSS
binds	DOM-65 (other, VH dAb) VH: EVQLLESGGGLVQPGGSLRLSCAASGFTFNEYEMTWVRQAPGKGLEWVSTITSEGSGTYYADSVKGRFTISRDNSKNTLYLQMNSLRAEDTAVYYCAKPNGKFDYWGQGTLVTVSS
binds	DOM-28 (other, VH dAb) VH: EVQLLESGGGLVQPGGSLRLSCAASGFTFGHYDMAWVRQAPGKGLEWVSTISDNGNGTYYADSVKGRFTISRDNSKNTLYLQMNSLRAEDTAVYYCAKPGRDFDYWGQGTLVTVSS
binds	DOM-23 (other, VH dAb) VH: EVQLLESGGGLVQPGGSLRLSCAASGFTFGLYEMTWVRQAPGKGLEWVSSITGDGISTYYADSVKGRFTISRDNSRNTLYLQMNSLRAEDTAVYYCAKAGRKFDYWGQGTLVTVSS
binds	DOM-78 (other, VH dAb) VH: EVQLLESGGGLVQPGGSLRLSCAASGFTFERYQMAWVRQAPGKGLEWVSTISSDGGGTYYADSVKGRFTISRDNSKNTLYLQMNSLRAEDTAVYYCAKPGHRFDYWGQGTLVTVSS
binds	DOM-43 (other, VH dAb) VH: EVQLLESGGGLVQPGGSLRLSCAASGFTFASYEMAWVRQAPGKGLEWVSSIGSDGGPTYYADSVKGRFTISRDNSKNTLYLQMNSLRAEDSAVYYCAKPDRAFDYWGQGTLVTVSS
binds	DOM-25 (other, VH dAb) VH: EVQLLESGGGLVQPGGSLRLSCAASGFTFDNYEMTWVRQAPGKGLEWVSTITSQGTSTYYADSVKGRFTISRDNSKNTLYLQMNSLRAEDTAVYYCAKPDRSFDYWGQGTLVTVSS
binds	DOM.94 (other, VH dAb) VH: EVQLLESGGGLVQPGGSLRLSCAASGFTFELYPMSWVRQAPGKGLEWVSTISPTGLLTYYADSVKGRFTISRDNSKNTLYLQMNSLRAEDTAVYYCAKFKRSGKTDDTNFDYWGQGTLVTVSS

More lines, now with the values behind:

Binder	binding result
DOM.95 (other, VH dAb) VH: EVQLLESGGGLVQPGGSLRLSCAASGFTFREYDMLWVRQAPGKGLEWVSTIVGDGNGTYYADSVKGRFTISRDNSKNTLYLQMNSLRAEDTAVYYCAKQDRQFDYWGQGTLVTVSS	binds
DOM.175 (other, Vk dAb) VL: DIQMTQSPSSLSASVGDRVTITCRASQPISGGLRWYQQKPGKAPKLLIYSTSMLQSGVPSRFSGSGSGTDFTLTISSLQPEDFATYYCQQLYSAPYTFGQGTKVEIKR	binds
DOM-11 (other, VH dAb) VH: EVQLLESGGGLVQPGGSLRLSCAASGFTFGDYEMSWVRQAPGKGLEWVSGIDGEGSDTYYADSVKGRFTISRDNSKNTLYLQMNSLRAEDTAVYYCAKPGRSFDYWGQGTLVTVSS	binds
DOM-29 (other, VH dAb) VH: EVQLLESGGGLVQPGGSLRLSCAASGFTFGRYQMAWVRQAPGKGLEWVSSISSDGGGTYYADSVKGRFTISRDNSKNTLYLQMNSLRAEDTAVYYCAKPGRAFDYWGQGTLVTVSS	binds
DOM-26 (other, VH dAb) VH: EVQLLESGGGLVQPGGSLRLSCAASGFTFRSYEMTWVRQAPGKGLEWVSSITSDGGTTYYADSVKGRFTISRDNSKNTLYLQMNSLRAEDTAVYYCAKPDKTFDYWGQGTLVTVSS	binds
DOM-22 (other, VH dAb) VH: EVQLLESGGGLVQPGGSLRLSCAASGFTFHNYEMSWVRQAPGKGLEWVSSISSGGSSTYYADSVKGRFTISRDNSKNTLYLQMNSLRAEDTAVYYCAKPGVKFDYWGQGTLVTVSS	binds
DOM-73 (other, VH dAb) VH: EVQLLESGGGLVQPGGSLRLSCAASGFTFSKYDMSWVRQAPGKGLEWVSTILEDGLTTYYADSVKGRFTISRDNSKNTLYLQMNSLRAEDTAVYYCAKPGRLFDYWGQGTLVTVSS	binds
DOM-68 (other, VH dAb) VH: EVQLLESGGGLVQPGGSLRLSCAASGFTFKDYEMTWVRQAPGKGLEWVSSISSTGQSTYYADSVKGRFTISRDNSKNTLYLQMNSLRAEDTAVYYCAKPGNKFDYWGQGTLVTVSS	binds
DOM-58 (other, VH dAb) VH: EVQLLESGGGLVQPGGSLRLSCAASGFTFEVYTMAWVRQAPGKGLEWVSTIDESGRDTYYADSVKGRFTISRDNSKNTLYLQMNSLRAEDTAVYYCAKPGVWFDYWGQGTLVTVSS	binds
DOM-41 (other, VH dAb) VH: EVQLLESGGGLVQPGGSLRLSCAASGFTFFEYEMTWVRQAPGKGLEWVSSIANDGSTTYYADSVKGRFTISRDNSKNTLYLQMNSLRAEDTAVYYCAKPDRQFDYWGQGTLVTVSS	binds
DOM-42 (other, VH dAb) VH: EVQLLESGGGLVQPGGSLRLSCAASGFTFGPYEMTWVRQAPGKGLEWVSSIVGDGLDTYYADSVKGRFTISRDNSKNTLYLQMNSLRAEDTAVYYCAKPDRVFDYWGQGTLVTVSS	binds
DOM-67 (other, VH dAb) VH: EVQLLESGGGLVQPGGSLRLSCAASGFTFSDYEMSWVRQAPGKGLEWVSTIDSDGSFTYYADSVKGRFTISRDNSKNTLYLQMNSLRAEDTAVYYCAKPGVKFDYWGQGTLVTVSS	binds
DOM-57 (other, VH dAb) VH: EVQLLESGGGLVQPGGSLRLSCAASGFTFSEYDMYWVRQAPGKGLEWVSWIDTDGGDTYYADSVKGRFTISRDNSKNTLYLQMNSLRAEDTAVYYCAKPGLKFDYWGQGTLVTVSS	binds
DOM-14 (other, VH dAb) VH: EVQLLESGGGLVQPGGSLRLSCAASGFTFWSYDMTWVRQAPGKGLEWVSSIMASGDDTYYADSVKGRFTISRDNSKNTLYLQMNSLRAEDTAVYYCAKWDRDFDYWGQGTLVTVSS	binds
DOM.92 (other, VH dAb) VH: EVQLLESGGGLVQPGGSLRLSCAASGFTFVDYPMGWVRQAPGKGLEWVSTISTGGFSTYYADSVKGRFTISRDNSKNTLYLQMNSLRAEDTAVYYCAKARYYYLSQIKNFDYWGQGTLVTVSS	binds
DOM.93 (other, VH dAb) VH: EVQLLESGGGLVQPGGSLRLSCAASGFTFDIYGMTWVRQAPGKGLEWVSSISPLGLVTYYADPVKGRFTISRDNSKNTLYLQMNSLRAEDTAVYYCAKLKEHGDVPFDYWGQGTLVTVSS	binds
DOM-15 (other, VH dAb) VH: EVQLLESGGGLVQPGGSLRLSCAASGFTFEEYVMSWVRQAPGKGLEWVSTISPIGLTTYYADSVKGRFTISRDNSKNTLYLQMNSLRAEDTAVYYCAEFPLIILPDFDYWGQGTLVTVSS	binds
DOM.97 (other, VH dAb) VH: EVQLLESGGGLVQPGGSLRLSCAASGFTFEEYGMSWVRQAPGKGLEWVSTISPIGVTTYYADSVKGRFTISRDNSKNTLYLQMNSLRAEDTAVYYCAKNAYDRKSNFDYWGQGTLVTVSS	binds
DOM.98 (other, VH dAb) VH: EVQLLESGGGLVQPGGSLRLSCAASGFTFDRYVMVWVRQAPGKDLEWVSGITPSGRRTYYADSVKGRFTISRDNSKDTLYLQMNSLRAEDTAVYYCAKVLGRHFDPLLPSFDYWGQGTLVTVSS	binds
DOM.90 (other, Vk dAb) VL: DIQMTQSPSSLSASVGDRVTITCRASQSISDALFWYQQKPGKAPRLLIYYGSVLQSGVPSRFSGSGSGTDFTLTISSLQPEDFATYYCQQRFQEPVTFGQGTKVEIKR	binds
